We go through 76 sequences from the supplement of paper PMC7877785.

This series is described as follows: self-splicing fitness, log relative to wild type (ln ratio); higher = more splicing; Tetrahymena group I intron in knt gene, E. coli kanamycin selection, DiMSum; sequences stand for … in CUCUCU…GGAGGGAAAAGUUAUCAGGCAUGCACCUGGUAGCUAGUCUUUAAACCAAUAGAUUGCAUCGGUUUAAAAGGCAAGACCGUCAAAUUGCGGGAAAGGGGUCAACAGCCGUUCAGUACCAAGUCUCAGGGGAAACUUUGAGAUGGCCUUGCAAAGGGUAUGGUAAUAAGCUGACGGACAUGGUCCUAACCACGCAGCCAAGUCCUAAGUCAACAGAUCUUCUGUUGAUAUGGAUGCAGUUCACAGACUAAAUGUCGGUCGGGGAAGAUGUAUUCUUCUCAUAAGAUAUAGUCGGACCUCUCCUUAAUGGGAGCUAGCGGAUGAAGUGAUGCAACACUGGAGCCGCUGGGAACUAAUUUGUAUGCGAAAGUAUAUUGAUUAGUUUUGGAGUACUCGUGGUCG
The method, boiled down:
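DiMSum derived fitness as the error-weighted combination of fold changes across replicates, kanamycin versus no kanamycin, normalised to wild type. E. coli BL21(DE3) held the library, which randomised all eight P1ex-region intron nucleotides within the knt kanamycin-resistance gene on pET-22b(+). Six replicate transformations grew overnight at 37°C or 30°C on LB agar with or without 25 μg/mL kanamycin, also containing 100 μg/mL carbenicillin, 50 μM IPTG and 0.2% rhamnose, and pooled colonies were amplicon-sequenced on an Illumina HiSeq 2500.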

± gives the uncertainty stated by the source.

As for GAUGAGCAAUAUUACGCCAG, the “self-splicing fitness (ln)” value is -3.63 ± 0.22 (30 °C) and -3.07 ± 0.4 (37 °C). For GAUGAGCAAUAUUACGCGCU the same measures were -1.97 ± 0.23 and -1.88 ± 0.45.

Take GAUGAGCAAUAUUACGCUAU: for the setting “30 °C”, the “self-splicing fitness (ln)” value is -2 ± 0.38. GAUGAGCAAUAUUACGCUCA: the “self-splicing fitness (ln)” value (30 °C) was -1.18 ± 0.41 and the “self-splicing fitness (ln)” value (37 °C) is -0.934 ± 0.42. As to GAUGAGCAAUAUUACGGACC, the “self-splicing fitness (ln)” value is -0.753 ± 0.19 (30 °C) and -0.541 ± 0.22 (37 °C).

Regarding GAUGAGCAAUAUUACGGAGG, the “self-splicing fitness (ln)” value (30 °C) is -3.47 ± 0.26 and the “self-splicing fitness (ln)” value (37 °C) is -3.23 ± 0.35. On the same counts, the results for GAUGAGCAAUAUUACGGCGG are -3.43 ± 0.3 and -1.88 ± 0.26. For GAUGAGCAAUAUUACGUACU the same measures were -1.85 ± 0.19 and -0.913 ± 0.26.

As for GAUGAGCAAUAUUACGUCCA, the “self-splicing fitness (ln)” value is -2.12 ± 0.36 (30 °C) and -2.26 ± 0.32 (37 °C). On the same counts, the results for GAUGAGCAAUAUUACGUCUG are -2.66 ± 0.19 and -2.96 ± 0.28.

With GAUGAGCAAUAUUACGUGCA, the “self-splicing fitness (ln)” value runs as follows: (30 °C) -1.14 ± 0.12; (37 °C) -1.82 ± 0.15. For the sequence GAUGAGCAAUAUUACGUGCC, the “self-splicing fitness (ln)” value is, setting by setting: (30 °C) -2.92 ± 0.23; (37 °C) -2.3 ± 0.42. For GAUUAGCAAUAUUACGAACC the same measures were -0.528 ± 0.24 and -0.802 ± 0.37. On the same counts, the results for GAUUAGCAAUAUUACGAAUA are -1.1 ± 0.29 and -0.71 ± 0.26. On to GAUUAGCAAUAUUACGAGGC, for which the “self-splicing fitness (ln)” value is -4.11 ± 0.46 (30 °C) and -1.02 ± 0.28 (37 °C). On the same counts, the results for GAUUAGCAAUAUUACGAUAC are -1.24 ± 0.19 and -0.415 ± 0.18. For GAUUAGCAAUAUUACGAUGU, the “self-splicing fitness (ln)” value (30 °C) is -0.783 ± 0.074 and the “self-splicing fitness (ln)” value (37 °C) is -0.611 ± 0.1. Take GAUUAGCAAUAUUACGAUUU: the “self-splicing fitness (ln)” value runs as follows: (30 °C) -0.392 ± 0.12; (37 °C) 0.757 ± 0.13.

As to GAUUAGCAAUAUUACGCACC, the “self-splicing fitness (ln)” value is, setting by setting: (30 °C) -1.5 ± 0.081; (37 °C) -0.681 ± 0.084. On to GAUUAGCAAUAUUACGCGGC, for which the “self-splicing fitness (ln)” value (30 °C) is -3.08 ± 0.38 and the “self-splicing fitness (ln)” value (37 °C) is -2 ± 0.35. For GAUUAGCAAUAUUACGGAAG the same measures were -2.01 ± 0.24 and -2.18 ± 0.28.

As for GAUUAGCAAUAUUACGGAUA, the “self-splicing fitness (ln)” value is -1.36 ± 0.17 (30 °C) and 0.0656 ± 0.2 (37 °C). For the sequence GAUUAGCAAUAUUACGGCAG, the “self-splicing fitness (ln)” value was -2.78 ± 0.31 (30 °C) and -1.84 ± 0.23 (37 °C). Regarding GAUUAGCAAUAUUACGGCCC, the “self-splicing fitness (ln)” value by setting is: (30 °C) -0.175 ± 0.083; (37 °C) -0.352 ± 0.12.

For the sequence GAUUAGCAAUAUUACGGCCU, the “self-splicing fitness (ln)” value is -1.39 ± 0.12 (30 °C) and -0.323 ± 0.098 (37 °C). On the same counts, the results for GAUUAGCAAUAUUACGGUCG are -1.28 ± 0.11 and -0.366 ± 0.13. For GAUUAGCAAUAUUACGGUGG the same measures were -2.89 ± 0.2 and -2.88 ± 0.2.

Take GAUUAGCAAUAUUACGUAGU: the “self-splicing fitness (ln)” value was -3.06 ± 0.15 (30 °C) and -1.34 ± 0.12 (37 °C). For GAUUAGCAAUAUUACGUGAG the same measures were -1.33 ± 0.073 and 0.0593 ± 0.096. GAUUAGCAAUAUUACGUGAU: the “self-splicing fitness (ln)” value was -3.04 ± 0.11 (30 °C) and -1.07 ± 0.091 (37 °C). For GAUUAGCAAUAUUACGUGCC the same measures were 0.747 ± 0.28 and -0.667 ± 0.46. On the same counts, the results for GCAAAGCAAUAUUACGAAAC are -1.75 ± 0.092 and -0.783 ± 0.11. On the same counts, the results for GCAAAGCAAUAUUACGAAUU are -2.67 ± 0.15 and -0.942 ± 0.11.

As for GCAAAGCAAUAUUACGACCU, the “self-splicing fitness (ln)” value reads like this: (30 °C) -1.17 ± 0.13; (37 °C) 0.204 ± 0.16. GCAAAGCAAUAUUACGAGCC: the “self-splicing fitness (ln)” value (30 °C) is -2.28 ± 0.28. Take GCAAAGCAAUAUUACGAGCG: the “self-splicing fitness (ln)” value reads like this: (30 °C) -1.06 ± 0.077; (37 °C) -0.631 ± 0.093.

For GCAAAGCAAUAUUACGAUGA, the “self-splicing fitness (ln)” value is -0.578 ± 0.076 (30 °C) and 0.353 ± 0.096 (37 °C). For GCAAAGCAAUAUUACGCGCG, the “self-splicing fitness (ln)” value was -1.55 ± 0.12 (30 °C) and -0.161 ± 0.15 (37 °C). On the same counts, the results for GCAAAGCAAUAUUACGCGUG are -3.41 ± 0.1 and -1.27 ± 0.078. For GCAAAGCAAUAUUACGCGUU the same measures were -1.96 ± 0.13 and -2.03 ± 0.2.

For GCAAAGCAAUAUUACGCUUG, the “self-splicing fitness (ln)” value is -3.98 ± 0.18 (30 °C) and -2.64 ± 0.18 (37 °C). For GCAAAGCAAUAUUACGCUUU the same measures were -3.49 ± 0.15 and -3.27 ± 0.22. On the same counts, the results for GCAAAGCAAUAUUACGGAUC are -1.26 ± 0.073 and -0.379 ± 0.085. Consider GCAAAGCAAUAUUACGGCCC, for which the “self-splicing fitness (ln)” value (30 °C) is -0.121 ± 0.18 and the “self-splicing fitness (ln)” value (37 °C) was -0.618 ± 0.27. On the same counts, the results for GCAAAGCAAUAUUACGGCUG are -2.43 ± 0.14 and -1.24 ± 0.17. On the same counts, the results for GCAAAGCAAUAUUACGGGUC are -2.55 ± 0.14 and -1.05 ± 0.12. On the same counts, the results for GCAAAGCAAUAUUACGGUUC are -2.17 ± 0.089 and -0.948 ± 0.11. GCAAAGCAAUAUUACGUACG: the “self-splicing fitness (ln)” value was -1.13 ± 0.083 (30 °C) and -1.84 ± 0.13 (37 °C). As for GCAAAGCAAUAUUACGUAUC, the “self-splicing fitness (ln)” value is, setting by setting: (30 °C) -2.35 ± 0.082; (37 °C) -1.74 ± 0.076. Turning to GCAAAGCAAUAUUACGUGAA, the “self-splicing fitness (ln)” value is -0.989 ± 0.099 (30 °C) and -0.0746 ± 0.12 (37 °C). Take GCAAAGCAAUAUUACGUUAA: the “self-splicing fitness (ln)” value (30 °C) was -1.83 ± 0.14 and the “self-splicing fitness (ln)” value (37 °C) was -1.45 ± 0.14.

Turning to GCAAAGCAAUAUUACGUUAC, the “self-splicing fitness (ln)” value (30 °C) is -2.75 ± 0.19 and the “self-splicing fitness (ln)” value (37 °C) was -1.3 ± 0.15. For GCACAGCAAUAUUACGAACG the same measures were -1.53 ± 0.1 and -0.558 ± 0.13. For GCACAGCAAUAUUACGAAUC the same measures were -1.15 ± 0.076 and -0.69 ± 0.079. On the same counts, the results for GCACAGCAAUAUUACGACCA are -0.551 ± 0.11 and -0.554 ± 0.14. With GCACAGCAAUAUUACGACUC, the “self-splicing fitness (ln)” value (30 °C) is -0.289 ± 0.067 and the “self-splicing fitness (ln)” value (37 °C) came out at 0.76 ± 0.083. For GCACAGCAAUAUUACGAUCU the same measures were -0.54 ± 0.064 and 0.0668 ± 0.085. As for GCACAGCAAUAUUACGCAGC, for the setting “37 °C”, the “self-splicing fitness (ln)” value is -1.85 ± 0.21. For GCACAGCAAUAUUACGCAUC, the “self-splicing fitness (ln)” value runs as follows: (30 °C) -1.07 ± 0.083; (37 °C) -0.51 ± 0.096. For GCACAGCAAUAUUACGCCCG the same measures were -1.84 ± 0.17 and -0.0618 ± 0.19.

Consider GCACAGCAAUAUUACGCGCA, for which the “self-splicing fitness (ln)” value by setting is: (30 °C) -0.993 ± 0.099; (37 °C) -0.327 ± 0.093. On the same counts, the results for GCACAGCAAUAUUACGCUGC are -4.12 ± 0.37 and -2.1 ± 0.3.

On to GCACAGCAAUAUUACGCUGU, for which the “self-splicing fitness (ln)” value reads like this: (30 °C) -3.33 ± 0.14; (37 °C) -2.23 ± 0.17.

On to GCACAGCAAUAUUACGGACU, for which the “self-splicing fitness (ln)” value by setting is: (30 °C) -0.665 ± 0.082; (37 °C) -0.54 ± 0.086. As to GCACAGCAAUAUUACGGCUA, the “self-splicing fitness (ln)” value by setting is: (30 °C) -0.204 ± 0.081; (37 °C) -0.393 ± 0.085. On the same counts, the results for GCACAGCAAUAUUACGGGUA are -1.36 ± 0.055 and -0.723 ± 0.061. On the same counts, the results for GCACAGCAAUAUUACGGUCA are -0.62 ± 0.08 and -0.276 ± 0.074. For GCACAGCAAUAUUACGGUGA the same measures were -0.308 ± 0.07 and -0.455 ± 0.079. With GCACAGCAAUAUUACGUAAC, the “self-splicing fitness (ln)” value is, setting by setting: (30 °C) -1.83 ± 0.092; (37 °C) -0.651 ± 0.11. With GCACAGCAAUAUUACGUAAG, the “self-splicing fitness (ln)” value is, setting by setting: (30 °C) -1.38 ± 0.06; (37 °C) -0.717 ± 0.079.

Take GCACAGCAAUAUUACGUGAG: the “self-splicing fitness (ln)” value (30 °C) is 0.0789 ± 0.047 and the “self-splicing fitness (ln)” value (37 °C) was 0.0342 ± 0.06. For GCACAGCAAUAUUACGUUGU the same measures were -3.71 ± 0.12 and -2.74 ± 0.12.

In the case of GCAGAGCAAUAUUACGACGG, the “self-splicing fitness (ln)” value by setting is: (30 °C) -2.22 ± 0.2; (37 °C) -1.21 ± 0.18. Take GCAGAGCAAUAUUACGACUC: the “self-splicing fitness (ln)” value was -1.83 ± 0.15 (30 °C) and -1.38 ± 0.17 (37 °C). For GCAGAGCAAUAUUACGCAGG the same measures were -4.06 ± 0.39 and -2.2 ± 0.22. In the case of GCAGAGCAAUAUUACGCGAC, the “self-splicing fitness (ln)” value (37 °C) was -2.27 ± 0.36.
